{"source": "paper PMC5388898", "about": "(Biomacromolecules, 2017)", "binders": {"B1": {"name": "Fc5^FL-ELP^DB (VHH)", "VHH": "EVQLQASGGGLVQAGGSLRLSCAASGFKITHYTMGWFRQAPGKEREFVSRITWGGDNTFYSNSVKGRFTISRDNAKNTVYLQMNSLKPEDTADYYCAAGSTSTATPLRVDYWGKGTQVTVSS"}}, "biological_target": "epidermal growth factor receptor (EGFR) on A431 cells (Homo sapiens, endogenous on A431 cells, UniProt P00533)", "assay": "flow cytometry on cells", "data": [{"binder": "B1", "values": [{"measurement": "binding result", "result": "no binding (tested: 1 μM)"}]}]}
